# Values quoted from earlier work as cited in publication PMC6442720.
# Biological target: laminin 10 (Homo sapiens) (UniProt O15230)
substance,measurement,value
integrin α3β1 (from UniProt P26006),Kd,7.9 nM
